Measured values: patent US20170087188A1, “WNT INDUCED MOTILITY AND ENHANCED ENGRAFTMENT OF CELLS” (OTTAWA HOSPITAL RESEARCH INSTITUTE, priority 2014, published 2017)
“And” between values parts separate entries of the source, which are not always exact repeats. Identical values can stand only once. “Also recorded” adds a separate entry of the source.

What was measured:
mdx mice [1] = test: Transplantation of Wnt7a-treated human primary myoblasts into mdx mice; type: in vivo, mouse
Experimental: The effectiveness of Wnt7a on human myoblasts, in vivo, was tested using the same experimental paradigm that we previously used for mouse myoblasts (FIG. 7C). 100,000 human myoblasts were treated ex vivo with Wnt7a for 3 h, and transplanted into immunosuppressed mdx mice. […] (FIG. 7D). […] Moreover, the mean maximal distance between dystrophin-expressing myofiber clusters increased from 1.8 mm under the Veh. condition to 3.0 mm for Wnt7a treatment (FIG. 7F).
(§1) Transplantation of zsGreen-expressing satellite cells or myoblasts into mdx mice was performed as previously described (Bentzinger et al., 2013c). Before transplantation the cells were treated for 3 h with Wnt7a, Wnt5a, or Wnt3a (R&D Systems) at a concentration of 50 ng/mL for freshly isolated satellite cells or with 100 ng/mL for cultured cells. Myoblasts expressing tdTomato were transplanted into uninjured muscles of C57BL/6 mice that were implanted with an osmotic pump (Alzet) delivering FK506 (Sigma) at 2.5 mg/kg/day 3 days prior to the transplantations. In some experiments, the injection site was marked with blue fluorescent microspheres (2 μm, Life Technologies) that were added at a concentration of 1:100 (vol/vol) to the cell suspension. 10 μl of the cell-microsphere suspension was injected into the TA of each mouse using a Hamilton syringe.

human primary myoblasts = test: Scratch migration assay, human primary myoblasts; type: cell-based
Experimental: The translational relevance of Wnt7a treatment was examined in human primary myoblasts.
(§2) Following plasmid transfection or application of Wnts (R&D Systems), the cells were treated with Mitomycin-C for 2 h (50 μg/mL). Subsequently, the monolayer of cells was scraped in a straight line. The plates were then extensively washed with culture medium and incubated for 24 h before analysis. Analysis was performed using DAPI staining after matching the reference points and enumeration of DAPI-stained nuclei in the scar was performed. Unless otherwise indicated, Wnt7a and Wnt3a were used at a concentration of 100 ng/mL in scratch assays. Monodansylcadaverine (MDC, 30432, Sigma) was used in scratch assays at a concentration of 50 μm.

mouse primary myoblasts = test: Scratch migration assay, mouse primary myoblasts; type: cell-based
Experimental: Cellular polarization is indicative of increased motility (de Forges et al., 2012). Scratch assays were used to test whether Wnt7a and Fzd7 polarization affect cell motility. To exclude effects on the localization of cells arising from altered rates of proliferation, cells were treated with Mitomycin-C.
Fzd7 deficient cells migrated 59% less compared to heterozygous myoblasts and expression of Fzd7-Flag in Fzd7 knockout myoblasts restored migration to normal levels (FIG. 2D). […] To investigate whether the stimulation of myoblast migration is dose dependent, different concentrations of Wnt7a and Wnt3a were tested for their effect on migration.
as §2

mdx mice [2] = test: Transplantation of Wnt-treated satellite cells into TA of mdx mice; type: in vivo, mouse
Experimental: It is known that poor migration of myogenic cells upon intramuscular injection is a major hurdle for the development of cell based therapies for muscular dystrophy (Skuk et al., 2007). The present inventors tested whether satellite cells treated with Wnt7a ex vivo prior to transplantation would enhance engraftment. 10,000 satellite cells were isolated from Pax7-zsGreen mice by fluorescent activated cell sorting (Bosnakovski et al., 2008), treated with Wnt7a for 3 h; washed extensively; and transplanted into the TA of immunosuppressed dystrophin-deficient mdx mice that were injured with cardiotoxin 2 days before the procedure (FIG. 6A).
as §1
Muscles frozen in liquid nitrogen were cut into 12 μm cross-sections. Cross-sections and cells were either fixed with ethanol (100%) or 2% PFA for 5 min, permeabilized with 0.1% Triton/0.1 M glycine/PBS for 10 min, blocked with 5% horse serum in PBS for several hours, and incubated with specific primary antibody in blocking buffer overnight at 4° C. Samples were subsequently washed with PBS and stained with appropriate fluorescently labeled secondary antibodies for 1 h at room temperature. After washing with PBS, samples were mounted with Permafluor (Fisher). Antibodies were as follows: chicken anti-GFP (Abcam, ab13970), mouse anti-Pax7 (DSHB), mouse anti-Dystrophin (7A10, DSHB), mouse anti-Rac1 (05-389, Millipore), mouse anti-Tubulin (Sigma, T9026), rabbit anti-Dvl2 (3224, Cell Signaling), rabbit anti-zsGreen (Clontech, 632474), rabbit anti-Laminin (Sigma, L9393), rabbit anti-HA (Millipore, 07-221).

satellite cells = test: Live imaging of satellite cells on single cultured myofibers; type: cell-based, mouse; settings: Wnt7a 1.5 μg/mL; compared to Veh.
Experimental: The effect of Wnt7a on satellite cell migration was measured using a time lapse imaging technique previously employed to monitor satellite cells on single muscle myofibers (Siegel et al., 2009). Wnt7a increased the mean velocity of satellite cells by 31% when compared to Veh. (FIG. 2F). […] (FIG. 2G).
Single cell imaging of cells transfected with Fzd7-YFP or YFP was performed on an LSM710 confocal microscope under 5% CO2 at 37° C. in phenol-red free DMEM (Life technologies) containing 10% FBS. Imaging of satellite cells on fibers was performed as described (Siegel et al., 2009). For live imaging of satellite cells on myofibers, Wnt7a was used at a concentration of 1.5 μg/mL. Satellite cell time-lapse microscopy was performed using a Leica DMI 5100 inverted microscope and MetaMorph 7.6.1 Software (Molecular Devices) with time points being acquired every 7 minutes in a stagetop incubator (LiveCell Imaging). ImageJ analyzed the time-lapse data to calculate the velocity, defined as distance (um)/time (hr), between time points and the average velocity of each cell was calculated. The maximum velocity is defined as the highest velocity obtained by a single cell during the tracking period.

B1: Wnt7a: non-canonical Wnt polypeptide (R&D Systems) used to treat or load myogenic cells (protein, UniProt O00755 32-349, looked up)
Protein Wnt-7a: LGASIICNKIPGLAPRQRAICQSRPDAIIVIGEGSQMGLDECQFQFRNGRWNCSALGERTVFGKELKVGSREAAFTYAIIAAGVAHAITAACTQGNLSDCGCDKEKQGQYHRDEGWKWGGCSADIRYGIGFAKVFVDAREIKQNARTLMNLHNNEAGRKILEENMKLECKCHGVSGSCTTKTCWTTLPQFRELGYVLKDKYNEAVHVEPVRASRNKRPTFLKIKKPLSYRKPMDTDLVYIEKSPNYCEEDPVTGSVGTQGRACNKTAPQASGCDLMCCGRGYNTHQYARVWQCNCKFHWCCYVKCNTCSERTEMYTCK
How did the “increase in the number of dystrophin-expressing myofibers” value (mdx mice [1]; 100,000 human myoblasts treated ex vivo 3 h, immunosuppressed mdx mice, compared to Veh.) turn out when B1 was run?
Its value is 226% and > 200%.

What about the “mean maximal distance between dystrophin-expressing myofiber clusters” value (mdx mice [1]; human myoblasts treated ex vivo 3 h, mdx mice) of the same molecule?
The value was 3.0 mm.

What about the “increase in fiber feret” value (mdx mice [1]; myofibers fused to Wnt7a-treated human myoblasts, mdx mice) of the same molecule?
The value was 29%.

What about the human myoblast migration (human primary myoblasts) of the same molecule?
Its human myoblast migration is “significantly increases cell migration; also recorded: significantly increased human myoblast migration”.

And the “dose dependency of myoblast migration” value (mouse primary myoblasts; different concentrations tested, mouse primary myoblasts)?
The value was “relatively linear increases in cell migration”.

And the “response of cell migration to Wnt7a in Fzd7 knockout myoblasts” value (mouse primary myoblasts; primary myoblasts from Fzd7−/− mice)?
Its value is “do not respond; also recorded: no reaction”.

What about the “increase in cell migration” value (mouse primary myoblasts; satellite cell derived mouse primary myoblasts, Wnt 100 ng/mL, vs Veh. or empty vector) of the same molecule?
Its value is 136%.

What about the “enhanced engraftment of zsGreen-expressing cells” value (mdx mice [2]; 10,000 satellite cells treated 3 h (50 ng/mL), mdx TA, after 3 weeks, vs Veh.) of the same molecule?
The value was 69%.

What about the “numbers of endogenous satellite cells” value (mdx mice [2]; Pax7+/zsGreen− cells in host mdx muscle, vs Veh.) of the same molecule?
Its value is “not significantly changed; also recorded: not altered”.

And the “hypertrophy of dystrophin-expressing myofibers (minimal feret)” value (mdx mice [2]; myofibers fused with Wnt7a treated satellite cells, mdx TA)?
The value was 116%.

What about the “proportion of zsGreen+ engrafted cells that express Ki67” value (mdx mice [2]; satellite cells into mdx TA, vs Veh.) of the same molecule?
The value was “do not show more Ki67 staining; also recorded: did not alter”.

And the “maximal distance between clusters of dystrophin-expressing myofibers” value (mdx mice [2]; satellite cells treated 3 h, mdx TA, average)?
The value was 3.7 mm.

And the “increase in number of myofibers expressing dystrophin” value (mdx mice [2]; satellite cells treated 3 h, mdx TA, vs Veh.)?
Its value is 486%.

And the higher directional persistence (satellite cells)?
The higher directional persistence was 36%.

What about the “increase in mean velocity of satellite cells” value (satellite cells) of the same molecule?
The value was 31%.

What about the mean maximal velocity (satellite cells) of the same molecule?
The mean maximal velocity was “not significantly different; also recorded: not substantially different”.
